Biological target: αvβ3 integrin (human (endogenous in U87MG)) (UniProt P06756)
UniProt P06756, sequence (P06756 31-1048, chain 1 of 2): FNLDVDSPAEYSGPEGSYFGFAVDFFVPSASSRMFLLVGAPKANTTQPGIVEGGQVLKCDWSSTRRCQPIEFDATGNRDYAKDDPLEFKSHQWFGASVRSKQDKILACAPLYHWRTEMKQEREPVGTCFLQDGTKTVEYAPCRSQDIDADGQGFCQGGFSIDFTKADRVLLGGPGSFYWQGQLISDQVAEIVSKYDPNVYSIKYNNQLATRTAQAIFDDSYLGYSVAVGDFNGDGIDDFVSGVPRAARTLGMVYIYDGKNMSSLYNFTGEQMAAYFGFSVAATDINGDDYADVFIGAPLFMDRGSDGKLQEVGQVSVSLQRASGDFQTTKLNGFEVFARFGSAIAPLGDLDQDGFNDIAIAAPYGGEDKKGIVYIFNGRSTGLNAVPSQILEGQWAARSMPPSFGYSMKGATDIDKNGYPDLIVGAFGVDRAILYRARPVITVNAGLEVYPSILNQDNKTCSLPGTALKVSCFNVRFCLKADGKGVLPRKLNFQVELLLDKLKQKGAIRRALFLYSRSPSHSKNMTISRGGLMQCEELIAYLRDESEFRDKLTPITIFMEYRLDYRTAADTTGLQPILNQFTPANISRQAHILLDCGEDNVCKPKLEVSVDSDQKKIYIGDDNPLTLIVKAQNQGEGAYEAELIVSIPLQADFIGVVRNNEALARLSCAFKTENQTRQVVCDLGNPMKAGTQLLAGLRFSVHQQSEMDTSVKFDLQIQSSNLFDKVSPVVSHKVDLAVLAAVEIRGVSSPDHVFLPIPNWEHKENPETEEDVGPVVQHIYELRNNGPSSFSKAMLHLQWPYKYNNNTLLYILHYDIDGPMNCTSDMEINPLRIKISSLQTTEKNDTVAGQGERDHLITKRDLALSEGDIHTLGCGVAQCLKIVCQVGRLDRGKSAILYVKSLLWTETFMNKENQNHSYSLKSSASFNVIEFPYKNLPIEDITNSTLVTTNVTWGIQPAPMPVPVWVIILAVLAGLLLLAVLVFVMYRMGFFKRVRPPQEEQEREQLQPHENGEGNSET
UniProt P06756, sequence (P05106 27-788, chain 2 of 2, further chain): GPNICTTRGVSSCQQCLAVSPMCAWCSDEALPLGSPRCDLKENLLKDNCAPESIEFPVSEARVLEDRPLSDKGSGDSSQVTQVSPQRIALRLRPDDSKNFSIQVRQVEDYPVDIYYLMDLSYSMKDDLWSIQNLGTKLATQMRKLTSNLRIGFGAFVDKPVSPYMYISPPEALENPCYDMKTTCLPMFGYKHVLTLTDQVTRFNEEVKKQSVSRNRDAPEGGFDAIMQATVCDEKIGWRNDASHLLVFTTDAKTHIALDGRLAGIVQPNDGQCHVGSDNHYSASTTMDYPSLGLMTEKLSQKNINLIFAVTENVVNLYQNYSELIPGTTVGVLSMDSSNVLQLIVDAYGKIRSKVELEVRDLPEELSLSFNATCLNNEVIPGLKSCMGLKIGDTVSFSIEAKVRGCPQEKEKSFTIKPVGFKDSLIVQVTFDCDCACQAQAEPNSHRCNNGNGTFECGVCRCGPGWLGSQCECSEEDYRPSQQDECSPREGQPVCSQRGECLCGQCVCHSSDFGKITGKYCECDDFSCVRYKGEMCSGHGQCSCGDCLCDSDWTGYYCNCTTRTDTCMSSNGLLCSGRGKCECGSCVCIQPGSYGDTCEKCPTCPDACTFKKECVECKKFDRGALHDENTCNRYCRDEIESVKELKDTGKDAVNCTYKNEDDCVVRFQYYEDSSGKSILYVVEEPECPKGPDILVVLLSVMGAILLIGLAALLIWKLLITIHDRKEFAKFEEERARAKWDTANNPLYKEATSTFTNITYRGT

cellular uptake in U87MG cells at 200 nM 700DX (fluorescence intensity after 7 h), fold over cells incubated with 700DX-PEG-cRGD: 2.5 times
cellular uptake in U87MG cells at 200 nM 700DX (fluorescence intensity after 7 h), fold over cells incubated with free 700DX: 4.5 times
Substance: 700DX-PEG-PGlu-cRGD15 (peptide)

Source: PMC5970177
